The text below walks through data of patent US20230312741A1 (published 2023).

In assay [1] the target is T1, human CD73 expressed on the cell surface (human, UniProt P21589 27-549).
T1 sequence: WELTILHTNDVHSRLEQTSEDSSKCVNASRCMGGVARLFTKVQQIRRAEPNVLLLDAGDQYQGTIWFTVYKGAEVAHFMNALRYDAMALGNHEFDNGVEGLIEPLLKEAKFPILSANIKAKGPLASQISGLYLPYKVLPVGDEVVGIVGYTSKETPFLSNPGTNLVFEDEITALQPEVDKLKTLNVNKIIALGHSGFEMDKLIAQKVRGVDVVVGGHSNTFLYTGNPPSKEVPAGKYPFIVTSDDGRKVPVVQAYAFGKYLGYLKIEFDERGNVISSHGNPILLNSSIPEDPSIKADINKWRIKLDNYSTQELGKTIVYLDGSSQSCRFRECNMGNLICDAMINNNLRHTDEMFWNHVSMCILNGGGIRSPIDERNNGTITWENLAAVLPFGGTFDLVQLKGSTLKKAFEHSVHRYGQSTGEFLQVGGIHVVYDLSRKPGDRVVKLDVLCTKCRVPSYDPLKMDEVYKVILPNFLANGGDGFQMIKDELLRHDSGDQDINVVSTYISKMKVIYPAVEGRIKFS
As to the kind of experiment: cell-based or functional assay.

The target of assay [2] is T2, soluble CD73 protein (ACRO, CD3-H52H7) (human, UniProt P21589 27-547).
T2 sequence (looked up): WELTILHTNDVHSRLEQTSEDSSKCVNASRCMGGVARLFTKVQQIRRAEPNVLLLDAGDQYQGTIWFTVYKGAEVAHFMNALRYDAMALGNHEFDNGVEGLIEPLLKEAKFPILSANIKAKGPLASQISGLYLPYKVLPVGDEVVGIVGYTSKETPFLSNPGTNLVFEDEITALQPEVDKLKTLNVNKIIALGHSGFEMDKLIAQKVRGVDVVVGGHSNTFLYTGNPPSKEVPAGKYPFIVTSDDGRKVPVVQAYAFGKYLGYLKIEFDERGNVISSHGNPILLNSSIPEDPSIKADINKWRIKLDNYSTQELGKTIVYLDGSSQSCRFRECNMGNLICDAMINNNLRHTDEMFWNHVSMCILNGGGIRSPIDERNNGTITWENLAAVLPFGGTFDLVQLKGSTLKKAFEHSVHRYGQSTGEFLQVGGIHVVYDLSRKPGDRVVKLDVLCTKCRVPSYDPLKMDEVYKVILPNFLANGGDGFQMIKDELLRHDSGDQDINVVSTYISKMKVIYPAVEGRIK
In words: cell-based or functional assay.

For assay [3], the target named is T1, human CD73 expressed on the cell surface. As to the kind of experiment: cell-based or functional assay. The source holds these as a separate data set.
The target of assay [4] is T3, CD73 mutant Y161A/K162A/V170A (human, UniProt P21589 27-549).
T3 construct: As m43; also called mutant 3
T3 chain: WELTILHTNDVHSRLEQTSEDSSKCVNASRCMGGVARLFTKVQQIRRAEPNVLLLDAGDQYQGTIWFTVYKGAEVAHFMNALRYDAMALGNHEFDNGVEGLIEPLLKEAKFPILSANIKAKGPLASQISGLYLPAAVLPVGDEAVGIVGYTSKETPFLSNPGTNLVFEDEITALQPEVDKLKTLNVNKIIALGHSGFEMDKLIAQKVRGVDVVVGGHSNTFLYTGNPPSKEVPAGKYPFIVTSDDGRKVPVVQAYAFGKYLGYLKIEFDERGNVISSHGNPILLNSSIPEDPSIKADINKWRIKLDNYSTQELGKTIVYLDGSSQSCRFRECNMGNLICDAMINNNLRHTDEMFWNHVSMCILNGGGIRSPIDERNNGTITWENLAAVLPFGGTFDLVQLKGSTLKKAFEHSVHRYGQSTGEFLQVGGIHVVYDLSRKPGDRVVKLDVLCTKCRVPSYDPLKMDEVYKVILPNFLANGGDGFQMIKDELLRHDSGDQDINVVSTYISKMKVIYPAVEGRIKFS
As to the kind of experiment: flow cytometry, GS-CHO cells with CD73 mutant. On the technique in general: Flow cytometry measures light scatter and fluorescence of single cells or particles in a stream.
Experimental: (§1) After washing three more times with PBS, the cells were resuspended in 100 ul PBS. (4) The average fluorescence value was measured in PE channel by flow cytometer. The Log₁₀ of antibody concentration was used as the horizontal coordinate and the average fluorescence value of the PE channel was used as the vertical coordinate to plot a curve, and the EC50 and the peak of the curve were compared.

The target in assay [5] is T4, CD73 mutant K136A/Y161A/K162A/V170A (human, UniProt P21589 27-549).
T4 construct: As m43; also called mutant 13
T4 chain: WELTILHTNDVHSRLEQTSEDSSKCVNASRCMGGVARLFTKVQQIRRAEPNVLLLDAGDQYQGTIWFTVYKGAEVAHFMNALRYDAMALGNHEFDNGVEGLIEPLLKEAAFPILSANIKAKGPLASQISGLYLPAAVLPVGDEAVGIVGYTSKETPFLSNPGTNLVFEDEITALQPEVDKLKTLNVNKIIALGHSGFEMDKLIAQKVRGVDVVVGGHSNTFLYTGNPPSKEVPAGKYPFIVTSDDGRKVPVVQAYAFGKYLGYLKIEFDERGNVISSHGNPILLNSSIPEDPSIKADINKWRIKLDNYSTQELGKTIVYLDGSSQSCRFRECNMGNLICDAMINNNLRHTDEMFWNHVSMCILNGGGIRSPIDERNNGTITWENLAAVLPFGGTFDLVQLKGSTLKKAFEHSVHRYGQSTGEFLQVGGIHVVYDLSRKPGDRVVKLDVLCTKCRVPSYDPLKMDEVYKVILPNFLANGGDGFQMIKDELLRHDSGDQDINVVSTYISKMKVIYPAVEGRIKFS
In words: flow cytometry, GS-CHO cells with CD73 mutant.
Experimental: as §1

For assay [6], the target named is T5, CD73 mutant L159A/Y161A/K162A/V170A (human, UniProt P21589 27-549).
T5 construct: As m43; also called mutant 16
T5 chain: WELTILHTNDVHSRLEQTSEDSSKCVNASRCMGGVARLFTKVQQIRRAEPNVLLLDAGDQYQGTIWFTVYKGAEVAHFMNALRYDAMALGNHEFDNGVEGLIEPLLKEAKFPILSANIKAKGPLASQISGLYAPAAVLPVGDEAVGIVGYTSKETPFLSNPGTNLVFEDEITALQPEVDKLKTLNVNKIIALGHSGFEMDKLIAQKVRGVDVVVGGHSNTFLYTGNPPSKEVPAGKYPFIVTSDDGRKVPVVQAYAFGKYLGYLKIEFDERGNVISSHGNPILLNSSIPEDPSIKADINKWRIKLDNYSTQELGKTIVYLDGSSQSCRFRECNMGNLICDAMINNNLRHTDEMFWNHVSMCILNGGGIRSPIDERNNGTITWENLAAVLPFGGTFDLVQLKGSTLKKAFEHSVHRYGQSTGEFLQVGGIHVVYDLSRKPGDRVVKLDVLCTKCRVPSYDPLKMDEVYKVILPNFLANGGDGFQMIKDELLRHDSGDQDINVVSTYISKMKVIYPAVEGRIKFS
As to the kind of experiment: flow cytometry, GS-CHO cells with CD73 mutant.
Experimental: as §1

B1: ADI-37505 (antibody, human IgG4 S228P, kappa, F234A L235A, V domains shown)
VH: QVQLVESGGGLVQPGGSLRLSCAASGFTFSNYAMTWVRQAPGKGLEWVSAISGRGTATYYADSVKGRFTISRDNSKNTLYLQMNSLRAEDTAVYYCARGGPYGSGSYWDTFDYWGQGTLVTVSS
VL: EIVMTQSPATLSVSPGERATLSCRASQSVSSNLAWYQQKPGQAPRLLIYGASTRATGIPARFSGSGSGTEFTLTISSLQSEDFAVYYCQQYTNHYTFGGGTKVEIKR
In the case of B1, the “IC50, enzymatic activity of CD73 on NCI-H292 cells” value in assay [1] was determined as 1.47 nM. In addition, the “IC50, enzymatic activity of soluble CD73 at 1 hour” value in assay [2] is 0.0718 nM. Besides, the “IC50 for inhibiting the enzymatic activity of CD73 (Calu-6 cells)” value in assay [3] turned out to be 0.076 µg/mL. Also, the binding result in assay [4], in assay [5] and in assay [6] was “binds” throughout.

B2: ADI-37506 (antibody, human IgG4 S228P, kappa, F234A L235A, V domains shown)
VH: EVQLLESGGGLVQPGGSLRLSCAASGFTFSNLAMSWVRQAPGKGLEWVSAISGRATSTYYADSVKGRFTISRDNSKNTLYLQMNSLRAEDTAVYYCARGGPYGSGSYWDTFDYWGQGTLVTVSS
VL: EIVMTQSPATLSVSPGERATLSCRASQSVSSNLAWYQQKPGQAPRLLIYGASTRATGIPARFSGSGSGTEFTLTISSLQSEDFAVYYCQQYTNHYTFGGGTKVEIKR
As to B2, in assay [1], the “IC50, enzymatic activity of CD73 on NCI-H292 cells” value was found to be 1.27 nM. In addition, the “IC50, enzymatic activity of soluble CD73 at 1 hour” value in assay [2] is 0.0897 nM. Moreover, the “IC50 for inhibiting the enzymatic activity of CD73 (Calu-6 cells)” value in assay [3] amounted to 0.073 µg/mL. The binding result in assay [4], in assay [5] and in assay [6] was “binds” in each case.
